Biological target: ECTV-IL18BP expressed and secreted from mammalian cells, biotinylated (ectromelia virus)
Test: SPR

IL18 D110A (ligand)
Kd: 0.2 nM
koff: 3e-05 s⁻¹
kon: 260000 M⁻¹ s⁻¹
